T1: CHO produced recombinant Bet v 1 containing a S85A mutation with a C-terminal myc-myc hexahistidine tag … (Betula verrucosa (birch))
T1 chain: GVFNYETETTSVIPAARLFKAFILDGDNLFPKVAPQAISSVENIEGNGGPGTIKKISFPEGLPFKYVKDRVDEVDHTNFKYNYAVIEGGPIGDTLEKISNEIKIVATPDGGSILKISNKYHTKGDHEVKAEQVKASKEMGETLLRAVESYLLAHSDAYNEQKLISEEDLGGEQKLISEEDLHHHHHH

T2: Alder (Aln g 1, MyBiosource, Cat #MBS1041484) (Alder, UniProt P38948 2-160, limits assumed)
T2 construct: Bought reagent
T2 sequence (looked up): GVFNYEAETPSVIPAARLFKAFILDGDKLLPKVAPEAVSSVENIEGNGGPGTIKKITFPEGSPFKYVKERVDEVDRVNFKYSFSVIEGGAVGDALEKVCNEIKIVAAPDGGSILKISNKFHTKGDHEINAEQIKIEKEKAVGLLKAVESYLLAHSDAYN

T3: Apple (Mal d 1, MyBiosource, Cat #MBS1224919) (Apple, UniProt P43211 2-159, limits assumed)
T3 construct: Bought reagent
T3 sequence (looked up): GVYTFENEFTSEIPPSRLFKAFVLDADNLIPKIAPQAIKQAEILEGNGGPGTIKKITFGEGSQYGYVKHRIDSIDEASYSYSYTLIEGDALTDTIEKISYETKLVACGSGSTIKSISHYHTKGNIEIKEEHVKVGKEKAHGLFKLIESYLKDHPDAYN

T4: Celery (Api g 1, MyBiosource, Cat #MBS1171376) (Celery, UniProt P49372 1-154, limits assumed)
T4 construct: Bought reagent
T4 sequence (looked up): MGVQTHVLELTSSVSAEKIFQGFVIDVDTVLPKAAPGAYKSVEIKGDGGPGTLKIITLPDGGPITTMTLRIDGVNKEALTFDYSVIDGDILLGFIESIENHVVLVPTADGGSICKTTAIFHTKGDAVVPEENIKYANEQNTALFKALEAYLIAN

T5: European Hornbeam (Car b 1 isoform 1A & 1B, MyBiosource, Cat #MBS1200018) (European Hornbeam, UniProt P38949 2-160)
T5 construct: Bought reagent
T5 sequence (looked up): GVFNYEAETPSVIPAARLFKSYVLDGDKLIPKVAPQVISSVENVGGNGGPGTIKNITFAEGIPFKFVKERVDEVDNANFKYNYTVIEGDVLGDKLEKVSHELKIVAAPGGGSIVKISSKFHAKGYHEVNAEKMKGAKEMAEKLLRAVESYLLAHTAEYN

T6: European Hornbeam (Car b 1 isoform 2, MyBiosource, Cat #MBS1043940) (European Hornbeam, UniProt P38950 2-160, limits assumed)
T6 construct: Bought reagent
T6 sequence (looked up): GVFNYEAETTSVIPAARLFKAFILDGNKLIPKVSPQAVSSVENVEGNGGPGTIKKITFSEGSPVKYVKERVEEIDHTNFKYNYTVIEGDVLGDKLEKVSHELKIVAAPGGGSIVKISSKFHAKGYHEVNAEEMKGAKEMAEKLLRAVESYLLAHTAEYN


Key:
[1] = molecular target: T1, CHO produced recombinant Bet v 1 …; test: SPR, mAb captured via anti-hFc, 25 C
Description: (§1) Equilibrium dissociation constants (KD) for natural Bet v 1 binding to purified anti-Bet v 1 monoclonal antibodies were determined using a real-time surface plasmon resonance biosensor (SPR-Biacore) on a Biacore 4000 instrument. All binding studies were performed in 10 mM HEPES, 150 mM NaCl, 3 mM EDTA, and 0.05% v/v surfactant Tween-20, pH 7.4 (HBS-ET) running buffer at 25° C. and 37° C. […] Association (kₐ) and dissociation (kd) rate constants were determined by fitting the real-time binding sensorgrams to a 1:1 binding model with mass transport limitation using Scrubber 2.0c curve-fitting software. Binding dissociation equilibrium constants (KD) and dissociative half-lives (t½) were calculated from the kinetic rate constants as:

[2] = molecular target: T1, CHO produced recombinant Bet v 1 …; test: SPR, mAb captured via anti-hFc, 37 C
Description: as §1

[3] = molecular target: T2, Alder (Aln g 1, MyBiosource, Cat …); test: SPR, mAb captured via anti-hFc, 25 C
Description: (§2) Equilibrium dissociation constants (KD) for different related allergens binding to purified anti-Bet v 1 monoclonal antibodies were determined using a real-time surface plasmon resonance biosensor (SPR-Biacore) on a Biacore 4000 instrument. All binding studies were performed in 10 mM HEPES, 150 mM NaCl, 3 mM EDTA, and 0.05% v/v surfactant Tween-20, pH 7.4 (HBS-ET) running buffer at 25° C. […] Binding studies were performed on the following related allergens: Alder (Aln g 1, MyBiosource, Cat #MBS1041484), Apple (Mal d 1, MyBiosource, Cat #MBS1224919), Carrot (Dau c 1.2, MyBiosource, Cat #MBS1212920), Celery (Api g 1, MyBiosource, Cat #MBS1171376), Celery (Api g 2, MyBiosource, Cat #MBS1047880), European Hornbeam (Car b 1 isoform 1A & 1B, MyBiosource, Cat #MBS1200018), European Hornbeam (Car b 1 isoform 2, MyBiosource, Cat #MBS1043940), Hazel (Cor A 1, MyBiosource, Cat #MBS5304600), and White Oak (Que a 1, MyBiosource, Cat #MBS1258822). […] Association (kₐ) and dissociation (kd) rate constants were determined by fitting the real-time binding sensorgrams to a 1:1 binding model with mass transport limitation using Scrubber 2.0c curve-fitting software. Binding dissociation equilibrium constants (KD) and dissociative half-lives (t½) were calculated from the kinetic rate constants as:

[4] = molecular target: T3, Apple (Mal d 1, MyBiosource, Cat …); test: SPR, mAb captured via anti-hFc, 25 C
Description: as §2

[5] = molecular target: T4, Celery (Api g 1, MyBiosource, Cat …); test: SPR, mAb captured via anti-hFc, 25 C
Description: as §2

[6] = molecular target: T5, European Hornbeam (Car b 1 isoform 1A & …); test: SPR, mAb captured via anti-hFc, 25 C
Description: as §2

[7] = molecular target: T6, European Hornbeam (Car b 1 isoform 2, …); test: SPR, mAb captured via anti-hFc, 25 C
Description: as §2

100 nM natural Bet v 1- MMH Bound (RU) [1] [RU] | 100 nM natural Bet v 1-MHH Bound (RU) [2] [RU] | 100 nM Analyte Bound (RU) [3] [RU] | binding result [3] | 100 nM Analyte Bound (RU) [4] [RU] | 100 nM Analyte Bound (RU) [5] [RU] | binding result [5] | 100 nM Analyte Bound (RU) [6] [RU] | Kd [6] [nM] | t½ [6] [min] | 100 nM Analyte Bound (RU) [7] [RU] | Kd [7] [nM] | Kd [1] [nM] | koff [1] [s⁻¹] | kon [1] [M⁻¹ s⁻¹] | t½ [1] [min] | Kd [2] [nM] | koff [2] [s⁻¹] | kon [2] [M⁻¹ s⁻¹] | t½ [2] [min] | Binder | also measured
0 | 0 | 1 | no binding (tested: 100 nM) | -1 | 0 | no binding (tested: 100 nM) | 26 | 380 | 0.2 | 183 | 0.335 |  |  |  |  |  |  |  |  | H4H16943P (antibody, human IgG4, V domains shown, Fully human antibody with human IgG4 Fc (H4H prefix)) VH: EVQLVESGGGLVQPGGSLRLSCTASGFMSSMYWMSWVRQAPGKGLEWVSNIKQDGTEKNYVESVKGRFTISRDNAKNSLYLQINSLRGEDTAVYYCARDLYSSSSGYYYYGLDVWGQGTTVTVSS VL: DIVMTQSPLSLPVTPGEPASISCRSSQSLLHSNKYNYLDWYLQKPGQSPQLLIYLSSNRASGVPDRFSGSGSGTEFTLKISRVEAEDVGIYYCMQALHTPLTFGGGTKVEIK | binding result [1]: no binding (tested: 100 nM); koff [6]: 0.0578 s⁻¹; kon [6]: 152000 M⁻¹ s⁻¹; koff [7]: 0.000371 s⁻¹; kon [7]: 1.11e+06 M⁻¹ s⁻¹; t½ [7]: 31 min
0 | -1 | 0 | no binding (tested: 100 nM) | -2 | -1 |  | -1 |  |  | 0 |  |  |  |  |  |  |  |  |  | H4H16967P (antibody, human IgG4, V domains shown, Fully human antibody with human IgG4 Fc (H4H prefix)) VH: QVQLVESGGGVVQPGRSLRLSCAASGFTFSSYGMHWFRQAPGKGLEWVGVIWSDGSDKKYADSVKGRFTISRDNSKNTLYLLMNSLRDDDTAVYHCAREGGFLYSSSSHFDYWGQGTLVTVSS VL: AIQMTQSPSSLSASVGDRVTITCRTSQGIRNDLGWYQQKPGKAPKLLIFAASSLQSGVPSRFSGSGSGTDFTLTISSLQPEDFAIYYCLQDYKYPFTFGGGTKVEIK | binding result [7]: no binding (tested: 100 nM)
70 | 83 | 15 |  | -1 | 0 | no binding (tested: 100 nM) | -1 |  |  | 0 |  | 2.21 | 0.000335 | 151000 | 35 | 5.81 | 0.00125 | 215000 | 9.2 | H4H16950P (antibody, human IgG4, V domains shown, Fully human antibody with human IgG4 Fc (H4H prefix)) VH: QVQLVQSGAEVKKPGASVKVSCKTSGYTFTNYGITWVRQAPGQGLEWMGWISAYNGNTNYAQNVQGRVTMTTDTSTSTAYMEVRSLRSDDTAVYYCARRSSMLHFQHWGQGTLVTVSS VL: DIVMTQSPDSLAVSLGERATINCKSSQHVLYDSSNENYLAWFQQKPGQPPKLLIYWASTRESGVPDRFSGSGSGTDFTLTISSLQAEDVAVYYCQQYSSAPYTFGQGTKLEIK | Kd [3]: 175 nM; koff [3]: 0.016 s⁻¹; kon [3]: 91200 M⁻¹ s⁻¹; t½ [3]: 0.7 min; binding result [7]: no binding (tested: 100 nM)
 |  | 5 | no binding (tested: 100 nM) | 3 | 1 | no binding (tested: 100 nM) | 161 | 1.2 | 34 |  | 0.617 |  |  |  |  |  |  |  |  | H4H16992P (antibody, human IgG4 S228P, kappa, V domains shown, human IgG4 Fc; also called REGN5713; MAB1) VH: QVQLQESGPGLVKPSETLSLTCSVSGGSITNYFWTWIRQSPGKGLEWIGYIYYSGGTNYNPSLKSRVTISIDTSKNQFSLNMNSVTAADTAVYYCAGSYYYGVDVWGQGTTVTVSS VL: EIVLTQSPATLSLSPGERATLSCRASQSIKSFLAWYRQKPGQAPRLLIYDASNRPTGIPARFSGSGSGTDFTLTINSLESEDFAVYFCQQRNNWPFTFGPGTKVDIKR | binding result [4]: no binding (tested: 100 nM)
58 | 60 | 41 |  | 25 | 0 | no binding (tested: 100 nM) | 1 |  |  | 23 | 564 | 9.48 | 0.00386 | 407000 | 3 | 18.6 | 0.012 | 648000 | 1 | H4H16971P (antibody, human IgG4, V domains shown, Fully human antibody with human IgG4 Fc (H4H prefix)) VH: QVQLVESGGGVVQPGRSLRLSCAASGFTFSSYGLHWVRQAPGKGLEWVAVISDDGSYKFYADSMKGRFTISRDNSKNTLYLQMNSLRAEDTAVYYCAKDRGRSGWYYFDYWGQGTLVTVSS VL: not shown | Kd [3]: 126 nM; koff [3]: 0.0118 s⁻¹; kon [3]: 93000 M⁻¹ s⁻¹; t½ [3]: 1 min; Kd [4]: 494 nM; koff [4]: 0.0795 s⁻¹; kon [4]: 161000 M⁻¹ s⁻¹; t½ [4]: 0.2 min; binding result [6]: no binding (tested: 100 nM); koff [7]: 0.146 s⁻¹; kon [7]: 259000 M⁻¹ s⁻¹; t½ [7]: 0 min
83 | 97 | 2 | no binding (tested: 100 nM) | 0 | 1 | no binding (tested: 100 nM) | 63 | 168 | 0.5 | 63 | 179 | 0.348 | 0.000141 | 405000 | 82 | 0.655 | 0.000395 | 603000 | 29 | H4H16946P (antibody, human IgG4, V domains shown, Fully human antibody with human IgG4 Fc (H4H prefix)) VH: EVQLVESGGGLVQPGGSLRLSCVASGFTFSNYDMNWVRQAPGEGLEWISYISYSDHNIYYIDSVKGRFTISRDNAKNSLYLQMNSLRAEDTAIYYCAREALASSSFDYWGQGTLVTVSS VL: EIVMTQSPATLSVSPGERVTLSCRASQSVSGNLAWYQQKPGQAPRLLIYSASTGATGVPARFSGSGSGTEFTLTISSLQSEDFALYYCQQYNKWPRTIGQGTKVEIK | binding result [4]: no binding (tested: 100 nM); koff [6]: 0.024 s⁻¹; kon [6]: 143000 M⁻¹ s⁻¹; koff [7]: 0.0138 s⁻¹; kon [7]: 76900 M⁻¹ s⁻¹; t½ [7]: 0.8 min
64 | 72 | 29 |  | 1 | 0 | no binding (tested: 100 nM) | 4 |  |  | 1 |  | 0.789 | 0.000443 | 562000 | 26 | 2.01 | 0.00177 | 879000 | 6.5 | H4H16960P (antibody, human IgG4, V domains shown, Fully human antibody with human IgG4 Fc (H4H prefix)) VH: QLQLQESGPGLVRPSETLSLTCTVSGGSISSSNYWWGWIRQPPGKGLEWIGSIYYSGITYYNPSLKSRVTISADTSKDQFSLKLRSVTAADTAVYYCAKLEWLRLDFWGQGTTVTVSS VL: DIQMTQSPSSVSASVGDRVTITCRASQGISSWLVWYQQKPGKVPKLLIYAASSLQSGVPLRFSGSGSGTDFTLTISSLQPEDFATYYCQQAKSFPLTFGQGTRLEIK | Kd [3]: 147 nM; koff [3]: 0.0332 s⁻¹; kon [3]: 226000 M⁻¹ s⁻¹; t½ [3]: 0.3 min; binding result [4]: no binding (tested: 100 nM); binding result [6]: no binding (tested: 100 nM); binding result [7]: no binding (tested: 100 nM)

— patent US20240083986A1 (published 2024)
